This data set has as its target T1, TAF7 (WT) (UniProt Q15545 1-349).
T1 sequence: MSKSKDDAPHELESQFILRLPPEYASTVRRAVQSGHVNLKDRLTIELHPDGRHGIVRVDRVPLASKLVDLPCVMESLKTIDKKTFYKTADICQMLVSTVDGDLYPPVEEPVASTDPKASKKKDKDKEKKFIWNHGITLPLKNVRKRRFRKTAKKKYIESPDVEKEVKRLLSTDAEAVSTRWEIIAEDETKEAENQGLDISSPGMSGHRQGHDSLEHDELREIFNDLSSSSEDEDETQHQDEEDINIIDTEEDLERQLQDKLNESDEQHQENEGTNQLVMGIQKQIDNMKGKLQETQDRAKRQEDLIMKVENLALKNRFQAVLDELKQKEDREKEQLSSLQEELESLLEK
Kind of data set: EMSA. On the technique in general: A gel shift assay detects complexes by their altered migration in electrophoresis.

On to GGCAGAAAGGAGCAUUGGAGCUCUCUGCC (structured_RNA) [TARmut RNA], for which the binding result is “no binding”. GGCAGAUCUGAGCCUGGGAGCUCUCUGCC (structured_RNA) [HIV-1 TAR RNA]: the binding result is recorded as “binds”.

The values are drawn from PMC8664259.
